Where two headings read alike, the source gives them in different places. Ends that are not written are not given here.
What was measured:
human IgG Fc region = target: T1, human IgG Fc region (Homo sapiens, UniProt P01857); experiment: SPR binding affinity analysis on immobilized Fc region prepared by papain digestion of human monoclonal IgG
T1 construct: The Fc region was prepared by the papain digestion of a human monoclonal antibody IgG
Description: The Fc region was prepared by the papain digestion of a human monoclonal antibody IgG (Chugai Pharmaceutical Co., Ltd.) according to the instruction manual attached to Pierce® Fab Preparation Kit (Thermo Fisher Scientific Inc. Pierce) followed by purification by affinity chromatography using MabSelect SuRe (GE Healthcare Japan Corp.), HiTrap DEAE anion-exchange chromatography (GE Healthcare Japan Corp.), and gel filtration chromatography using Superdex 200 (GE Healthcare Japan Corp.).
The Fc region prepared in the section 1) of Example 2 was immobilized onto a sensor chip CM5 (GE Healthcare Japan Corp.) by the amine coupling method.
Subsequently, an example of binding affinity analysis by the surface plasmon resonance method is shown as to the functions of the thioredoxin fusion proteins with the prepared polypeptides. The analysis apparatus used was Biacore T100 (GE Healthcare Japan Corp.). […] The data was processed with Biacore T100 Evaluation Software (GE Healthcare Japan Corp.).
The assay employed Biacore T100 (GE Healthcare Japan Corp.).
Subsequently, the prepared 5 types of polypeptides were analyzed for their binding affinity by surface plasmon resonance. The assay employed Biacore T100 (GE Healthcare Japan Corp.).

[1] = tested on: human Fc region manufactured by Jackson ImmunoResearch Laboratories, Inc.; experiment: SPR binding affinity analysis, peptide as analyte on immobilized human Fc region (Jackson ImmunoResearch)
Excerpt: A human Fc region manufactured by Jackson ImmunoResearch Laboratories, Inc. was immobilized onto a sensor chip CM5 (GE Healthcare Japan Corp.) by the amine coupling method using Amine Coupling Kit (GE Healthcare Japan Corp.).

[2] = analyte on Fc region immobilized on CM5, HBS-T, 25° C., read-out: equilibrium dissociation constant KD
[3] = alanine variants of p17_2, Fc region immobilized on CM5, read-out: KD (nM), binding dissociation constant of p17_2 variant

“DAAWHLGELVWAT [FcIII-Ala peptide, reference compound]” gave a Kd (human IgG Fc region; Fc region immobilized on CM5, 0.78-100 μM peptide, read-out: equilibrium dissociation constant KD by Scatchard plot using equilibrium value) of 42000 nM.

For “DAAWHLGELVWATYYDPETGTWLPDWQTMAQK [pep21 peptide]”, the “improvement in affinity compared with FcIII-Ala peptide” value (human IgG Fc region) was “approximately 420 fold”.

“DAAWHLGELVWATYYDPETGTWQPDWLYMTTR [pep14 peptide]” gave a Kd (human IgG Fc region; [2]) of 120 nM.

In the case of “GVVRQWSGGGGSGGGGRSSIAYGGG [2A1Gly peptide, 2A1 peptide with the chignolin variant region replaced by a glycine-rich linker]”, the “binding affinity relative to that of the 2A1 peptide” value ([1]; chignolin variant region replaced with glycine-rich linker) is reported as 1/1000 and the Kd ([1]; peptide analyte, Fc immobilized on sensor chip CM5, HBS-T pH 7.4, 25° C., read-out: equilibrium dissociation constant KD) is reported as 23 µM.

In the case of “p17_2: SEQ ID NO: 47; 54 residues, p17 with Gly, Pro, Gly at the N terminus, from protease cleavage of thioredoxin fusion (GPGISAFSPGRGVYDPETGTWYDAAWHLGELVWATYYDPETGTWEPDWQRMLGQ; Selected sequence, p17_2)”, the “improvement in affinity compared with FcIII-Ala peptide” value (human IgG Fc region) is reported as “approximately 26000 fold”, the “improvement in binding affinity compared with pep24 peptide” value (human IgG Fc region) is reported as 138 fold and the Kd (human IgG Fc region; [2]) is reported as 1.6 nM.

Work on “p17_D47A: alanine variant of p17_2 polypeptide, SEQ ID NO: 61 (GPGISAFSPGRGVYDPETGTWYDAAWHLGELVWATYYDPETGTWEPAWQRMLGQ; Selected sequence, p17_D47A)” yielded a Kd (human IgG Fc region; [3]) of 45 nM.

“p17_P46A: alanine variant of p17_2 polypeptide, SEQ ID NO: 60 (GPGISAFSPGRGVYDPETGTWYDAAWHLGELVWATYYDPETGTWEADWQRMLGQ; Selected sequence, p17_P46A)” showed a Kd (human IgG Fc region; [3]) of 5.6 nM.

Substance “p17_R50A: alanine variant of p17_2 polypeptide, SEQ ID NO: 63 (GPGISAFSPGRGVYDPETGTWYDAAWHLGELVWATYYDPETGTWEPDWQAMLGQ; Selected sequence, p17_R50A)” has a Kd (human IgG Fc region; [3]) of 7.8 nM.

For “p17_W48A: alanine variant of p17_2 polypeptide, SEQ ID NO: 62 (GPGISAFSPGRGVYDPETGTWYDAAWHLGELVWATYYDPETGTWEPDAQRMLGQ; Selected sequence, p17_W48A)”, the Kd (human IgG Fc region; [3]) was 200 nM.

— patent US9897611B2, “Molecule library constructed on the basis of backbone structure of microprotein” (NATIONAL INSTITUTE OF ADVANCED INDUSTRIAL SCIENCE AND …, priority 2012, dated 2018)
